Test results taken from patent US20250250357A1 (NANJING ZAIMING PHARMACEUTICAL, published 2025).
Numbering of substitutions follows the chain as printed.

T1: monkey MSLN on HEK293T-monkey MSLN recombinant cells (monkey)
T1 construct: Full-length precursor as transfected; processing on the cell is not described; also called HEK293-monkey MSLN
T1 chain: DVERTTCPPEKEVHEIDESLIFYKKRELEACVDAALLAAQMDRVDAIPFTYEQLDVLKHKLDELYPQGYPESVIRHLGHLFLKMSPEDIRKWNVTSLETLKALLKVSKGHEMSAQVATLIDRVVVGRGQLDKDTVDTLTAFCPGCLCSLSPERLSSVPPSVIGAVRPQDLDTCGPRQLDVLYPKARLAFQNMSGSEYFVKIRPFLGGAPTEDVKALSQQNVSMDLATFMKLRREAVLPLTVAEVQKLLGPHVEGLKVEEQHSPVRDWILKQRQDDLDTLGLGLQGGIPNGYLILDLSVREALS

B1: F3.80.22-H2 (scFv, not shown: small tags and cut ends)
scFv: DIVMTQTPLSLPVTPGEPASISCRSSQSLEHNNGNTYLHWFLQKPGQSPQLLIYKVSNRFSGVPDRFSGSGSGTDFTLKISRVEAEDVGVYYCSQSTHVPFTFGQGTKLEIKGGGGSGGGGSGGGGSEVQLVQSGAEVKKPGATVKISCKASGYTFTDYEIHWVQQAPGKGLEWMGAFDPEIGGSAYNQKFKDRVTITADKSTSTAYMELSSLRSEDTAVYYCTDYYGSSSGYFDVWGQGTTVTVSS
notes: also called S009-F3.80.22 humanized antibody VL1 + VH2
B2: F3.80.22-H7 (scFv, not shown: small tags and cut ends)
scFv: B1 scFv with N33D, Q239T
notes: also called S009-F3.80.22 humanized antibody VL1a + VH3
B3: F3.80.22-H1 (scFv, not shown: small tags and cut ends)
scFv: B1 scFv with A151V, S204D
notes: also called S009-F3.80.22 humanized antibody VL1 + VH1
B4: F3.80.22-H6 (scFv, not shown: small tags and cut ends)
scFv: B1 scFv with N33D
notes: also called S009-F3.80.22 humanized antibody VL1a + VH2
B5: F3.80.22-H4 (scFv, not shown: small tags and cut ends)
scFv: B1 scFv with T203S, Q239T
notes: also called S009-F3.80.22 humanized antibody VL1 + VH4
B6: F3.80.22-H3 (scFv, not shown: small tags and cut ends)
scFv: B1 scFv with Q239T
notes: also called S009-F3.80.22 humanized antibody VL1 + VH3
B7: F3.80.22-H8 (scFv, not shown: small tags and cut ends)
scFv: B1 scFv with N33D, T203S, Q239T
notes: also called S009-F3.80.22 humanized antibody VL1a + VH4
B8: F3.80.22-H17 (scFv, not shown: small tags and cut ends)
scFv: EVQLVQSGAEVKKPGATVKISCKVSGYTFTDYEIHWVQQAPGKGLEWMGAFDPEIGGSAYNQKFKDRVTITADKSTDTAYMELSSLRSEDTAVYYCTDYYGSSSGYFDVWGQGTTVTVSSGGGGSGGGGSGGGGSDIVMTQTPLSLPVTPGEPASISCRSSQSLEHNDGNTYLHWFLQKPGQSPQLLIYKVSNRFSGVPDRFSGSGSGTDFTLKISRVEAEDVGVYYCSQSTHVPFTFGQGTKLEIK
notes: also called S009-F3.80.22 humanized antibody VH1 + VL1a
B9: F2.39.3-H2 (scFv, not shown: small tags and cut ends)
scFv: EVQLVQSGAEVKKPGASVKVSCKASGYTFTNYWMHWVRQAPGQGLEWMGNINPSSGDSYYNERFMSRVTMTVDKSTSTVYMELSSLRSEDTAVYYCARSGGLWLAFWGQGTLVTVSSGGGGSGGGGSGGGGSDIVMTQSPDSLAVSLGERATINCKSSQTLLNSVSQNNYLAWYQQKPGQSPTLLIYFASTRESGVPDRFSGSGSGTDFTLTISSLQAEDVAVYYCQQHYRTPYTFGGGTKVEIK
notes: also called S009-F2.39.3 humanized antibody VH1 + VL2
B10: F2.39.3-H9 (scFv, not shown: small tags and cut ends)
scFv: B9 scFv with V79A, Q109P, T183K
notes: also called S009-F2.39.3 humanized antibody VH3 + VL1
B11: F2.23.12-H5 (scFv, not shown: small tags and cut ends)
scFv: EVQLVQSGAEVKKPGASVKVSCKASGYTFTNYWMHWVRQAPGQGLEWMGNINPSNGGPYYNERFRSRVTMTVDKSTSTAYMELSSLRSEDTAVYYCARPYYGSSYGYFDYWGQGTTVTVSSGGGGSGGGGSGGGGSDIQMTQSPSSLSASVGDRVTITCKASQDINKYIAWYQQKPGKAPKLLIHYTSELQPGVPSRFSGSGSGTDFTFTISSLQPEDIATYYCLQYANPLRTFGGGTKVEIK
notes: also called S009-F2.23.12 humanized antibody VH2 + VL1
B12: F2.23.12-H13 (scFv, not shown: small tags and cut ends)
scFv: B11 scFv with N55Q
notes: also called S009-F2.23.12 humanized antibody VH4 + VL1
B13: S009-F7.21.16 (antibody, human IgG1, kappa, V domains shown)
VH: QVQLQQPGTELVKPGASVKLSCKASGYTFTTFWMHWVKQRPGQGLEWIGGVNPTNGGTNYNEKFRTKATLTVDKSSTTADMQLSSLTSEDSAVYYCAPHYISSRPGFAYWGQGTLVTVSG
VL: DIVMTQSQKFMSTSGGDRVSVTCKASQNVGTNVAWYQQKPGQSPKALIYSASYRYSGVPDRFTGSGSGTDFILTISNVQSEDLAEYFCQQYNSYPLTFGGGTKLEIKR
notes: Human-murine chimeric antibody, human IgG1 heavy and kappa light constant regions
B14: S009-F7.69.8 (antibody, human IgG1, kappa, V domains shown)
VH: EVHLQQSGPELVKPGASVRIPCKASGYTFTDYNMDWVKQSHGKSLEWIGDINPDNGGTIYTQKFKGKATLTVDKSSSTAYMELRSLTSEDTAVYYCARRLHYYGSSGLDYWGQGTTLTVSS
VL: DIQMTQSPASLSAYVGETVTITCRASGNIHNYLAWYQQKQGKSPQLLVYNAKTLADGVPSRFSGSGSGTQYSLKINSLQPEDFGSYYCQHFWSTVWTFGGGTKLEIKR
notes: as for B13
B15: S009-F7.25.19 chimeric antibody (antibody, human IgG1, kappa, V domains shown)
VH: QVQLQQPGTELVKPGASVKLSCKASGYTFTSYWMHWVKQRPGQGLEWIGNIIPSNGGTKYNEKFKSKATLTVDKSSSTAYMQLSSLTSEDSAVYYCSPHYYGGSPGFAYWGQGTLITVSA
VL: B13 VL with G15V, T22I, I72T
notes: Human-murine chimeric antibody, human IgG1/kappa constant regions

target: T2, human MSLN-R3 on HEK293T-hMSLN-R3 recombinant cells (human, UniProt Q13421 487-606); assay: FACS, HEK293T-hMSLN-R3 cells
T2 construct: the C-terminal limit is uncertain; also called human MSLN-R3 membrane protein
T2 sequence (Q13421 495-614): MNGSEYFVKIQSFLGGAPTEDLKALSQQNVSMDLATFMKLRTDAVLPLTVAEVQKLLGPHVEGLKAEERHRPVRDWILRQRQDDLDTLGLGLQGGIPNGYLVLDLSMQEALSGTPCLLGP

EC50 | Maximum_MFI | Binder
0.67 nM | 1790 MFI | B1
3.91 nM | 1530 MFI | B2
2.14 nM | 1700 MFI | B3
8.39 nM | 1440 MFI | B4
 | 1410 MFI | B5
4.41 nM | 1750 MFI | B6
10.2 nM | 1400 MFI | B7
4.41 nM | 1790 MFI | B8

target: T2, human MSLN-R3 on HEK293T-hMSLN-R3 …; assay: FACS, HEK293T-hMSLN-R3 cells; remark: another data set of the same source

EC50 | Maximum_MFI | Binder
6.33 nM | 5970 MFI | B9
5.66 nM | 5560 MFI | B10
4.16 nM | 4730 MFI | B11
8.3 nM | 4710 MFI | B12

target: T3, human MSLN-R3-his protein (human, UniProt Q13421 487-598); assay: ELISA on coated antigen, antibody 200 nM
T3 construct: it is put last here; also called human MSLN-R3 protein; hMSLN-R3-his; not shown: His tag
T3 sequence (Q13421 495-606): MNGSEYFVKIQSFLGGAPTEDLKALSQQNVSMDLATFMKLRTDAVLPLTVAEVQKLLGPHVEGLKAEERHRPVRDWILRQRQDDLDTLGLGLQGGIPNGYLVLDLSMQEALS

OD450 | Binder
2.92 OD | B13
2.56 OD | B14

target: T4, human MSLN-FL-his protein (human, UniProt Q13421 296-580); assay: ELISA, coated antigen, antibody 0.2 nM
T4 construct: Made in HEK293E cells, purified on nickel column; also called hMSLN-FL-his; human MSLN full-length protein; not shown: His tag
T4 sequence (Q13421 other isoform, or with tags, fused parts or gaps): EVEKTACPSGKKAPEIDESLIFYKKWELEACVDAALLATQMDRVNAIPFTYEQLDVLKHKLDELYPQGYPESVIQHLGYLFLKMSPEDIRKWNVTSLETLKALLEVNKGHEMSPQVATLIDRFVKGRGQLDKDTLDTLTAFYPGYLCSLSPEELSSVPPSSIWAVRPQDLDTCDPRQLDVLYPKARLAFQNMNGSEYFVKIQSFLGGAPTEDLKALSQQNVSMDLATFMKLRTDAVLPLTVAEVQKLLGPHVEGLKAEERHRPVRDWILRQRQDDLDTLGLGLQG

OD450 | Binder
2.4 | B15

target: T3, human MSLN-R3-his protein; assay: ELISA on coated antigen, antibody 0.2 nM

OD450 | Binder
2.5 OD | B13
1.96 OD | B14

target: T3, human MSLN-R3-his protein; assay: ELISA on coated antigen, antibody 2 nM

OD450 | Binder
2.75 OD | B13
2.54 OD | B14

target: T4, human MSLN-FL-his protein; assay: ELISA, coated antigen, antibody 0.0002 nM

OD450 | Binder
0.52 | B15

Target: T1, monkey MSLN on HEK293T-monkey MSLN …
Assay: FACS, HEK293T-monkey MSLN cells

EC50 | Maximum_MFI | Binder
8.74 nM | 24900 MFI | B9
7.73 nM | 23300 MFI | B10
5.86 nM | 17700 MFI | B11
10.9 nM | 17600 MFI | B12

target: T3, human MSLN-R3-his protein; assay: ELISA on coated antigen, antibody 0.002 nM

OD450 | Binder
0.71 OD | B13
0.11 OD | B14

target: T4, human MSLN-FL-his protein; assay: ELISA, coated antigen, no antibody (blank)

OD450 | Binder
0.06 | B15

Target: T1, monkey MSLN on HEK293T-monkey MSLN …
Assay: FACS, HEK293T-monkey MSLN cells
Remark: another data set of the same source

Maximum_MFI | binding result | Binder
303 MFI | no binding | B1
329 MFI | no binding | B2
278 MFI | no binding | B3
338 MFI | no binding | B4
357 MFI | no binding | B5
330 MFI | no binding | B6
317 MFI | no binding | B7
356 MFI | no binding | B8

target: T4, human MSLN-FL-his protein; assay: ELISA, coated antigen, antibody 200 nM

OD450 | Binder
2.32 | B15

target: T4, human MSLN-FL-his protein; assay: ELISA, coated antigen, antibody 0.002 nM

OD450 | Binder
1.25 | B15

target: T3, human MSLN-R3-his protein; assay: ELISA on coated antigen, antibody 0.02 nM

OD450 | Binder
1.32 OD | B13
0.38 OD | B14

target: T5, human MSLN on OVCAR3 tumor cells (human, UniProt Q13421 296-598); assay: FACS, OVCAR3 cells
T5 construct: whole, on cells; also called human MSLN protein
T5 sequence (Q13421 other isoform, or with tags, fused parts or gaps): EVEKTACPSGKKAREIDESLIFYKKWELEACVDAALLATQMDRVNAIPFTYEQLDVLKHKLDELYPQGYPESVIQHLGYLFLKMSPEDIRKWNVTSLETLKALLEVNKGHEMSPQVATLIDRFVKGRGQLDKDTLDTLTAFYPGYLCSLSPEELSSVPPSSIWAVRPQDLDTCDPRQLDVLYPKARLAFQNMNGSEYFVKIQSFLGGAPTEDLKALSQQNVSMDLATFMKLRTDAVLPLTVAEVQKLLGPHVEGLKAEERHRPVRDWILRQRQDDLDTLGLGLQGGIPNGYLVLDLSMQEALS

EC50 | Maximum_MFI | Binder
54 nM | 4220 MFI | B9
17.2 nM | 4300 MFI | B10
11.3 nM | 3340 MFI | B11
38.6 nM | 3110 MFI | B12

target: T3, human MSLN-R3-his protein; assay: ELISA on coated antigen, antibody 20 nM

OD450 | Binder
2.52 OD | B13
2.55 OD | B14

target: T4, human MSLN-FL-his protein; assay: ELISA, coated antigen, antibody 20 nM

OD450 | Binder
2.48 | B15

target: T3, human MSLN-R3-his protein; assay: ELISA on coated antigen, antibody 0.0002 nM

OD450 | Binder
0.31 OD | B13
0.06 OD | B14

target: T3, human MSLN-R3-his protein; assay: ELISA on coated antigen, no antibody (blank, column 'none')

OD450 | Binder
0.08 OD | B13
0.07 OD | B14

target: T4, human MSLN-FL-his protein; assay: ELISA, coated antigen, antibody 0.02 nM

OD450 | Binder
1.9 | B15

target: T6, human MSLN-hFc recombinant protein (human, UniProt Q13421 296-580); assay: SPR (Biacore 8K), MSLN-hFc captured, antibody injected
T6 construct: Captured by an anti-human IgG antibody on the chip; also called human MSLN protein; Acro MSN-H5253
T6 sequence (Q13421 other isoform, or with tags, fused parts or gaps): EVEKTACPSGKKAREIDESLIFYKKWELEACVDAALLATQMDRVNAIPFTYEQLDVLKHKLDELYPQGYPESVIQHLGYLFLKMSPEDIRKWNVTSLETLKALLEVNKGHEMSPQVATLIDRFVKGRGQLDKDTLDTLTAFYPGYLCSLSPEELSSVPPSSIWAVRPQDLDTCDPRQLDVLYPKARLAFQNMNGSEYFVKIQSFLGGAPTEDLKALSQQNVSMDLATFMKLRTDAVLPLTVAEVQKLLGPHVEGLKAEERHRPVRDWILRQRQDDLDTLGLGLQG

Kd | koff | kon | Binder
0.985 nM | 3.39e-05 s⁻¹ | 34400 M⁻¹ s⁻¹ | B9
0.734 nM | 3.19e-05 s⁻¹ | 43500 M⁻¹ s⁻¹ | B10
7.74 nM | 0.000473 s⁻¹ | 61200 M⁻¹ s⁻¹ | B11
31.1 nM | 0.000482 s⁻¹ | 15500 M⁻¹ s⁻¹ | B12

target: T4, human MSLN-FL-his protein; assay: ELISA, coated antigen, antibody 2 nM

OD450 | Binder
2.39 | B15
